The record followed here is patent publication US20120308575A1.

The target of assay [1] is recombinant human TNF-α (Product 210-TA-050, R&D) (human) (UniProt P01375). Put plainly: flow cytometry competition: FITC-TNF-α (100 ng/ml) on U937 cells, antibody titrated; average of 3.
Assay [2] has the same target. Put plainly: flow cytometry competition: FITC-TNF-α (100 ng/ml) on U937 cells, antibody titrated; experiment 1. Background: Flow cytometry measures light scatter and fluorescence of single cells or particles in a stream.
Assay [3] shares this target. Put plainly: competition ELISA: biotin-TNF-α (10 ng/ml) on coated P75 receptor-Fc, antibody titrated; experiment 2. (ELISA stands for enzyme-linked immunosorbent assay.)
For assay [4] the target is unchanged. Put plainly: flow cytometry competition: FITC-TNF-α (100 ng/ml) on U937 cells, antibody titrated; experiment 3.
The target is the same in assay [5]. Put plainly: SPR, Biacore T100, TNFα amine-coupled to CM5 chip, antibody in flow. On the technique in general: SPR reads the build-up and loss of mass on a sensor chip optically.
For assay [6] the target is unchanged. Put plainly: cell-based or functional assay.
For assay [7] the target is unchanged. Put plainly: competition ELISA: biotin-TNF-α (10 ng/ml) on coated P75 receptor-Fc, antibody titrated; average of 3.
Assay [8] has the same target. Put plainly: competition ELISA: biotin-TNF-α (10 ng/ml) on coated P75 receptor-Fc, antibody titrated; experiment 3.
Assay [9] shares this target. Put plainly: competition ELISA: biotin-TNF-α (10 ng/ml) on coated P75 receptor-Fc, antibody titrated; experiment 1.
For assay [10] the target is unchanged. Put plainly: flow cytometry competition: FITC-TNF-α (100 ng/ml) on U937 cells, antibody titrated; experiment 2.

As a reminder, the IC50 is the concentration needed to halve the response being measured. Usually Kd stands for the constant that tells how readily two partners part at equilibrium.

recombinant human TNF-α (Product 210-TA-050, R&D) (human), sequence (P01375 77-233 limits assumed): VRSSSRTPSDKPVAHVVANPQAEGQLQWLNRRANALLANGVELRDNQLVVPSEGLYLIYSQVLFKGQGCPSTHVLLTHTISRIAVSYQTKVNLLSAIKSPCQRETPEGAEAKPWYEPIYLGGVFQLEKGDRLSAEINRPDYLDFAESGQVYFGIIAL

As to “fully human antibody adalimumab (Humira, D2E7, commercial product)”, in [1], the IC50 is 7.36 µg/mL. Also, the IC50 in assay [2] was found to be 6.62 µg/mL. Moreover, in assay [3], the IC50 is 2.15 µg/mL. Also, the IC50 in [4] is 7.44 µg/mL. In addition, in [5], the Kd is 0.63 nM. Moreover, in assay [6], the IC50 of resistance to TNF-α-mediated killing of L929 cells (MTS), average stood at 0.316 µg/mL; the IC50 of resistance to TNF-α-mediated killing of L929 cells (MTS), experiment 1 was determined as 0.296 µg/mL; the IC50 of resistance to TNF-α-mediated killing of L929 cells (MTS), experiment 2 came out at 0.335 µg/mL; the IC50 of resistance to TNF-α-mediated killing of L929 cells (MTS), experiment 3 stood at 0.318 µg/mL. Also, in assay [6], the Increase in Body Temperature of Rabbits (rhTNF-α 5 µg/kg i.v. mixed with antibody 500 µg/kg; 60 min) amounted to 0 ° C, the Survival Status of Mice (rhTNF-α 1 µg + D-galactosamine 20 mg; antibody 1 µg i.p. 30 min before) came to 20%, the Survival Status of Mice (rhTNF-α 1 µg + D-galactosamine 20 mg; antibody 2 µg i.p. 30 min before) worked out at 40% and the Survival Status of Mice (rhTNF-α 1 µg + D-galactosamine 20 mg; antibody 4 µg i.p. 30 min before) was 40%. Also, in assay [6], the Survival Status of Mice (rhTNF-α 1 µg + D-galactosamine 20 mg; antibody 6 µg i.p. 30 min before) was found to be 50% and the Survival Status of Mice (rhTNF-α 1 µg + D-galactosamine 20 mg; antibody 8 µg i.p. 30 min before) is 60%. In addition, the IC50 in assay [7] turned out to be 2.35 µg/mL. In addition, the IC50 in assay [8] amounted to 2.59 µg/mL. Also, in [9], the IC50 came to 2.3 µg/mL. For the same substance, the IC50 in assay [10] was 8.03 µg/mL.
